The assay deals with T1, V1-TRF2, Q15554.
T1 chain: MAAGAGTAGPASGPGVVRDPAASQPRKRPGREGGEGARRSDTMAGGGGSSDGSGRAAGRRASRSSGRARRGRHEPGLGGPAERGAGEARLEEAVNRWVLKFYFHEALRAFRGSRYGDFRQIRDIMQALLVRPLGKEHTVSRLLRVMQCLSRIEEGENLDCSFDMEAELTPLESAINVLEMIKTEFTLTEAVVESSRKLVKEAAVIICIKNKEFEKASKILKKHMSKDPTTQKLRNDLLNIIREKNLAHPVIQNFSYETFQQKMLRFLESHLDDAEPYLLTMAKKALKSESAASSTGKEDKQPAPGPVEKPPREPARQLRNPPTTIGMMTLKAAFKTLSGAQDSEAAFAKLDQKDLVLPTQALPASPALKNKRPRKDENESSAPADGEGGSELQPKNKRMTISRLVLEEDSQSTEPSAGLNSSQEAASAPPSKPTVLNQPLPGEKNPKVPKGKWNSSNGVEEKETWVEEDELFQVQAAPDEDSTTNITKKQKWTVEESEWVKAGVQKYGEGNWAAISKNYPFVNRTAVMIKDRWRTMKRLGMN
The assay is described as follows: protein fragment complementation assay (PCA), split Venus. Particulars: chain shown with the change; coexpression by cotransfection; three separate transfections each measured in triplicate; parent: est. 12500; read off a plot.

B1: TIN2L-V2, Q9BSI4-1 R282H (protein)
chain: MATPLVAGPAALRFAAAASWQVVRGRCVEHFPRVLEFLRSLRAVAPGLVRYRHHERLCMGLKAKVVVELILQGRPWAQVLKALNHHFPESGPIVRDPKATKQDLRKILEAQETFYQQVKQLSEAPVDLASKLQELEQEYGEPFLAAMEKLLFEYLCQLEKALPTPQAQQLQDVLSWMQPGVSITSSLAWRQYGVDMGWLLPECSVTDSVNLAEPMEQNPPQQQRLALHNPLPKAKPGTHLPQGPSSRTHPEPLAGRHFNLAPLGRRRVQSQWASTRGGHKEHPTVMLFPFRNLGSPTQVISKPESKEEHAIYTADLAMGTRAASTGKSKSPCQTLGGRALKENPVDLPATEQKENCLDCYMDPLRLSLLPPRARKPVCPPSLCSSVITIGDLVLDSDEEENGQGEGKESLENYQKTKFDTLIPTLCEYLPPSGHGAIPVSSCDCRDSSRPL
With B1, the response (fluorescence activity minus background) was found to be 5900.

B2: TIN2L-V2, Q9BSI4-1 D391K; D395K (protein)
chain: MATPLVAGPAALRFAAAASWQVVRGRCVEHFPRVLEFLRSLRAVAPGLVRYRHHERLCMGLKAKVVVELILQGRPWAQVLKALNHHFPESGPIVRDPKATKQDLRKILEAQETFYQQVKQLSEAPVDLASKLQELEQEYGEPFLAAMEKLLFEYLCQLEKALPTPQAQQLQDVLSWMQPGVSITSSLAWRQYGVDMGWLLPECSVTDSVNLAEPMEQNPPQQQRLALHNPLPKAKPGTHLPQGPSSRTHPEPLAGRHFNLAPLGRRRVQSQWASTRGGHKERPTVMLFPFRNLGSPTQVISKPESKEEHAIYTADLAMGTRAASTGKSKSPCQTLGGRALKENPVDLPATEQKENCLDCYMDPLRLSLLPPRARKPVCPPSLCSSVITIGKLVLKSDEEENGQGEGKESLENYQKTKFDTLIPTLCEYLPPSGHGAIPVSSCDCRDSSRPL
As for B2, the response (fluorescence activity minus background) came out at 5700.

Source of the values: PMC5974431.
